Laboratory results from patent US20190194317A1 (FARON PHARMACEUTICALS, published 2019).

Experiments:
[1] = biological target: T1, CLEVER-1 coated on the ELISA plate (competition ELISA, Examples 5 and 10) (human, UniProt Q9NY15 26-1027, limits assumed); test: competition ELISA on coated CLEVER-1 against 0.6 µg/ml biotinylated mouse 3-372
T1 construct: Coated at 1 ug/ml in PBS; also called human Clever-1
T1 sequence (looked up): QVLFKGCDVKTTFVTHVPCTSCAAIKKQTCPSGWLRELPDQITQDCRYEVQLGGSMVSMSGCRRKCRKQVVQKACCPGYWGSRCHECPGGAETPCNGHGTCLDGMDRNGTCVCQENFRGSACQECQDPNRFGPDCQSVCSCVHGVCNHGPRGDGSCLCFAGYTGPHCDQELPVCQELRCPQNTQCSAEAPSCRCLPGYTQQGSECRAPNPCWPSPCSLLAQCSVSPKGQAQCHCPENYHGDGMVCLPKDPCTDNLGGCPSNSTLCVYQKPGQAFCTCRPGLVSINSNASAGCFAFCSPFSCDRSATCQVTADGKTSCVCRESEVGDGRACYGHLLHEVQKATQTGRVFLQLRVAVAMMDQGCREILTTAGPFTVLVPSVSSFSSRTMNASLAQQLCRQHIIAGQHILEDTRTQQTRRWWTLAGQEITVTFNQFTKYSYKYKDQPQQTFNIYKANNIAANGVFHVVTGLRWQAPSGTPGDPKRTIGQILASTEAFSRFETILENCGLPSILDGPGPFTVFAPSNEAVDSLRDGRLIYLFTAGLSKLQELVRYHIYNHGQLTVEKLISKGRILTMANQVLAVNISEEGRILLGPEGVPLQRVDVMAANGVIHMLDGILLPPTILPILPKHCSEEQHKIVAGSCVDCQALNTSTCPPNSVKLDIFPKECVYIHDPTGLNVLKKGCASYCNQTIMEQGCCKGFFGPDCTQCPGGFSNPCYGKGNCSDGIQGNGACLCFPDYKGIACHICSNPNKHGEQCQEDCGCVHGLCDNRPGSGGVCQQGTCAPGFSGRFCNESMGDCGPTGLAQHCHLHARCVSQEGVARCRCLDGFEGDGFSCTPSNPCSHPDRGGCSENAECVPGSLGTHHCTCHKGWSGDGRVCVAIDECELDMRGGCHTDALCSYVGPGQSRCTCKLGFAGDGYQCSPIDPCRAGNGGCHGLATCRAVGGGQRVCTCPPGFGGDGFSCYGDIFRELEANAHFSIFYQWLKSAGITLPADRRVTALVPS
Procedure: Briefly, a Nunc Immulon 96 well maxisorp plate (Fisher Cat. No. DIS-971-030J) was coated with CLEVER-1 at 1 μg/ml in PBS (100 μl/well) overnight at 4° C., with an additional 1 hour at 37° C. the following morning. Wells were washed with PBS/0.1% Tween 20 and then blocked for 45 min at room temperature, in 1% Marvel/1% BSA/PBS.
The blocked ELISA plate was washed as before and 100 μl of the premixed antibodies added to each well. The plate was incubated for 1 hour at room temperature.
This confirms that the correct variable region sequences have been identified and expressed in the chimeric antibody.

[2] = biological target: T1, CLEVER-1 coated on the ELISA plate …; test: competition ELISA on coated CLEVER-1 against biotinylated mouse 3-372
Procedure: These were incubated for 1 hour at room temperature on a 96 well Immulon maxisorp plate (Fisher Cat. No. DIS-971-030J) precoated with 1 μg/ml CLEVER-1. […] The reaction was stopped with 3M HCl, absorbance read at 450 nm on a Dynex Technologies MRX TC II plate reader and the binding curves plotted. IC50 values for each antibody were calculated and these were normalized to the IC50 of the chimera which was included on each respective ELISA plate.

B1: chimeric 3-372 IgG4 (antibody, V domains shown)
VH: QVTLKESGPGILQPSQTLSLTCSFSGFSLNTSGMGIGWIRQPSGKGLEWLAHIWWDDDKRYNPALKSRLTISKDTSSNQVFLKIASVDTADTATYYCARHYGYDPYYAMDYWGQGTSVTVSS
VL: QIVLTQSPAIMSASLGERVTMTCTASSSVSSSYLHWYQQRPGSSPKLCIYRTSNLASGVPPRFSGSGSGTSYSLTISSMEAEDAATYYCHQYHRSPPTFGGGTKLEIN
notes: Expressed in NSO cells; also called CH/CK; chimera
IC50 [1]: 0.89 µg/mL
Relative IC50 [2]: 1 relative to the chimera on the same plate

B2: mouse monoclonal antibody 3-372 (DSM ACC2520) (antibody, V domains shown)
VH: QVTLKESGPGILQPSQTLSLTCSFSGFSLNTSGMGIGWIRQPSGKGLEWLAHIWWDDDKRYNPALKSRLTISKDTSSNQVFLKIASVDTADTATYYCARHYGYDPYYAMDYWGQGTSVTVSS
VL: QIVLTQSPAIMSASLGERVTMTCTASSSVSSSYLHWYQQRPGSSPKLCIYRTSNLASGVPPRFSGSGSGTSYSLTISSMEAEDAATYYCHQYHRSPPTFGGGTKLEIN
notes: Mouse hybridoma antibody with kappa light chain
IC50 [1]: 0.77 µg/mL
